# B1: mRNA-splicing (parent)
# chain: AGUUGCUGCUGGGAGCUCCAGCACAGUGAAAUGGACAGAAGGGCAGAGCAA
# Variants of: B1
# Assay: exon inclusion enrichment index; higher = more inclusion; WT1 exon 5 minigene, HEK293
row,Variant,exon inclusion enrichment index
1,G5A C6U U7A G8U C9A U27G,0.0103
2,G5A C6U U7A G8U C9A U27A,0.0803
3,G5A C6U U7A G8U C9A U27C,0.399
4,G5A C6U U7A G8U C9A G34U A35U,0.007
5,G5A C6U U7A G8U C9A G34U A35C,0.0139
6,G5A C6U U7A G8U C9A G34U A35G,0.014
7,G5A C6U U7G C9A,0.561
8,G5A U7C G8A G11C,1.3
9,G5A U7C G8A G11U,1.23
10,G5A U7C G8A G11A,0.186
11,G5A C6U U7A G8U U10G,0.317
12,G5A C6U U7A G8U U10C,1.03
13,G5A C6U U7A G8U U10A,0.0329
14,G5A C6U U7A G8U C9A G33A,0.00613
15,G5A C6U U7A G8U C9A G33U,0.00963
16,G5A C6U U7A G8U C9A G33C,0.108
17,G5A U7C C9A U10C,2.95
18,G5A U7C G8A U10A G11C,1.63
19,G5A U7C G8A U10A G11A,1.07
20,G5A U7C G8A U10A G11U,1.37
21,G5A C6U U7A G8U C9A G21A C22A,0.0256
22,G5A C6U U7A G8U C9A G21A C22G,0.0719
23,G5A C6U U7A G8U C9A G21A C22U,0.021
24,G5A C6U U7A G8U C9A U32C G33U,0.0226

row,Variant,exon inclusion enrichment index
1,G5A C6U U7A G8U C9A U32C G33C,0.144
2,G5A C6U U7A G8U C9A U32C G33A,0.0199
3,G5A C6U U7A G8U C9A G42C G43C,0.451
4,G5A C6U U7A G8U C9A G42C G43U,0.352
5,G5A C6U U7A G8U C9A G42C G43A,0.295
6,G5A C6U U7A G8U C9A C22U A23C,0.0341
7,G5A C6U U7A G8U C9A C22U A23G,0.0485
8,G5A C6U U7A G8U C9A C22U A23U,0.0179
9,G5A C6U U7A G8U C9A C22G A23C,0.0334
10,G5A C6U U7A G8U C9A C22G A23G,0.0166
11,G5A C6U U7A G8U C9A C22G A23U,0.00095
12,G5A G8U U10C,1.78
13,G5A C6U U7A G8U C9A C22A A23U,0.0397
14,G5A C6U U7A G8U C9A C22A A23C,0.189
15,G5A C6U U7A G8U C9A C22A A23G,0.0409
16,G5A C6U U7C G8C C9A,1.04
17,G5A C6U U7A G8U C9A G41U G42C,0.226
18,G5A C6U U7A G8U C9A G41U G42U,0.0785
19,G5A C6U U7A G8U C9A G41U G42A,0.0133
20,G5A C6U U7A G8U C9A G15C C16G,0.0723
21,G5A C6U U7A G8U C9A G15C C16A,0.0446
22,G5A C6U U7A G8U C9A G15C C16U,0.0353
23,G5A C6U U7A G8U C9A G38U A39U,0.00248
24,G5A C6U U7A G8U C9A G38U A39G,0.03

row,Variant,exon inclusion enrichment index
1,G5A C6U U7A G8U C9A G38U A39C,0.045
2,G5A C6U U7A G8U C9A G13A A14C,0.394
3,G5A C6U U7A G8U C9A G13A A14G,0.0895
4,G5A C6U U7A G8U C9A G13A A14U,0.189
5,G5A C6U U7A G8U C9A U27C G28U,0.0508
6,G5A C6U U7A G8U C9A U27C G28A,0.0919
7,G5A C6U U7A G8U C9A U27C G28C,0.1
8,G5A U7C G8A C9G U10G,0.236
9,G5A U7C G8A C9G U10C,1.65
10,G5A U7C G8A C9G U10A,0.989
11,G5A C6U U7A G8U C9A C44A A45G,0.0995
12,G5A C6U U7A G8U C9A C44A A45C,0.248
13,G5A C6U U7A G8U C9A C44A A45U,0.189
14,G5A C6U U7C G8U C9A,0.249
15,G5A C6U U7A G8U C9A G13C A14U,0.0623
16,G5A C6U U7A G8U C9A G13C A14C,0.039
17,G5A C6U U7A G8U C9A G13C A14G,0.145
18,G5A C6U U7A G8U C9A G11C G12U,0.0197
19,G5A C6U U7A G8U C9A G11C G12C,0.0512
20,G5A C6U U7A G8U C9A G11C G12A,0.0128
21,G5A C6U U7A G8U C9A G38C,0.0329
22,G5A C6U U7A G8U C9A G38U,0.0207
23,G5A C6U U7A G8U C9A G38A,0.0251
24,G5A C6U U7A G8U C9A G21C,0.0844

row,Variant,exon inclusion enrichment index
1,G5A C6U U7A G8U C9A G21U,0.0639
2,G5A C6U U7A G8U C9A G21A,0.071
3,G5A U7C G8A C9U U10C,2.24
4,G5A U7C G8A C9U U10G,0.887
5,G5A U7C G8A C9U U10A,0.0302
6,G5A C6U U7A G8U C9A G34U,0.00388
7,G5A C6U U7A G8U C9A G34C,0.0129
8,G5A C6U U7A G8U C9A G34A,0.0272
9,G5A C6U U7A G8U C9A G46C A47G,0.159
10,G5A C6U U7A G8U C9A G46C A47U,0.0869
11,G5A C6U U7A G8U C9A G46C A47C,0.144
12,G5A U7A G8U U10C,1.96
13,G5A C6U U7A G8U C9A G46U A47G,0.0512
14,G5A C6U U7A G8U C9A G46U A47U,0.0891
15,G5A C6U U7A G8U C9A G46U A47C,0.376
16,G5A C6U U7G G8A C9A,0.546
17,G5A C6U U7A G8U C9A G26U U27G,0.261
18,G5A C6U U7A G8U C9A G26U U27A,0.0488
19,G5A C6U U7A G8U C9A G26U U27C,0.536
20,G5A G8C U10C,1.52
21,G5A C6U U7A G8U C9A C24U A25U,0.0538
22,G5A C6U U7A G8U C9A C24U A25G,0.165
23,G5A C6U U7A G8U C9A C24U A25C,0.546
24,G5A G8C C9U U10C,1.05

row,Variant,exon inclusion enrichment index
1,G5A C6U U7A G8U C9A C44U A45U,0.0242
2,G5A C6U U7A G8U C9A C44U A45G,0.0383
3,G5A C6U U7A G8U C9A C44U A45C,0.1
4,G5A C6U U7A G8U C9A G42A G43A,1.16
5,G5A C6U U7A G8U C9A G42A G43C,1.53
6,G5A C6U U7A G8U C9A G42A G43U,1.03
7,G5A C6U U7A G8U C9A G21C C22G,0.197
8,G5A C6U U7A G8U C9A G21C C22U,0.0665
9,G5A C6U U7A G8U C9A G21C C22A,0.109
10,G5A C6U U7A G8U C9A G12C G13C,0.0141
11,G5A C6U U7A G8U C9A G12C G13U,0.000527
12,G5A C6U U7A G8U C9A G12C G13A,0.0284
13,G5A U7A G8A U10C,1.72
14,G5A C6U U7A G8U C9A G46U,0.0405
15,G5A C6U U7A G8U C9A G46C,0.0876
16,G5A C6U U7A G8U C9A G46A,0.0879
17,G5A C6U U7A G8U C9A U17G C18U,0.0294
18,G5A C6U U7A G8U C9A U17G C18A,0.0489
19,G5A C6U U7A G8U C9A U17G C18G,0.0481
20,G5A C6U U7A G8U C9A C44G A45G,0.0089
21,G5A C6U U7A G8U C9A C44G A45C,0.138
22,G5A C6U U7A G8U C9A C44G A45U,0.0272
23,G5A C6U U7A G8U C9A G11A G12U,0.01
24,G5A C6U U7A G8U C9A G11A G12C,0.0285

row,Variant,exon inclusion enrichment index
1,G5A C6U U7A G8U C9A G11A G12A,0.00659
2,G5A C6U U7A G8U C9A G41C G42C,0.417
3,G5A C6U U7A G8U C9A G41C G42U,0.445
4,G5A C6U U7A G8U C9A G41C G42A,0.139
5,G5A U7C G8A U10A,0.253
6,G5A U7C G8A U10C,2.53
7,G5A C6U U7A G8U C9A G15U,0.0601
8,G5A C6U U7A G8U C9A G15A,0.0278
9,G5A C6U U7A G8U C9A G15C,0.156
10,G5A C6U U7A G8U C9A G42U G43C,0.0628
11,G5A C6U U7A G8U C9A G42U G43U,0.23
12,G5A C6U U7A G8U C9A G42U G43A,0.282
13,G5A C6U U7A G8U C9G U10C,0.339
14,G5A C6U U7A G8U C9G U10G,0.0235
15,G5A C6U U7A G8U C9G U10A,0.0375
16,G5A U7C C9G U10C,2.65
17,G5A C6U U7A G8U C9A C24G,0.0851
18,G5A C6U U7A G8U C9A C24U,0.00831
19,G5A C6U U7A G8U C9A C24A,0.0667
20,G5A C6U U7C U10C,3.3
21,G5A C6U U7A G8U C9A U17C C18G,0.0591
22,G5A C6U U7A G8U C9A U17C C18A,0.0363
23,G5A C6U U7A G8U C9A U17C C18U,0.0327
24,G5A C6U U7A G8U C9A G26A U27C,0.504

row,Variant,exon inclusion enrichment index
1,G5A C6U U7A G8U C9A G26A U27A,0.122
2,G5A C6U U7A G8U C9A G26A U27G,0.168
3,G5A C6U U7C C9A,1.32
4,G5A C6U U7A G8U C9A G11U G12A,0.00404
5,G5A C6U U7A G8U C9A G11U G12U,0.00843
6,G5A C6U U7A G8U C9A G11U G12C,0.033
7,G5A C6U U7A G8U C9A C36U,0.00462
8,G5A C6U U7A G8U C9A C36G,0.0434
9,G5A C6U U7A G8U C9A C36A,0.0298
10,G5A C6U U7A G8U C9A G41A G42A,0.0506
11,G5A C6U U7A G8U C9A G41A G42C,0.172
12,G5A C6U U7A G8U C9A G41A G42U,0.0659
13,G5A U7C G8A,1.09
14,G5A C6U U7A G8U C9A G12U G13U,0.00049
15,G5A C6U U7A G8U C9A G12U G13A,0.00185
16,G5A C6U U7A G8U C9A G12U G13C,0.00721
17,G5A U7A C9A,0.664
18,G5A C6U U7A G8U C9A U17G,0.0456
19,G5A C6U U7A G8U C9A U17A,0.0566
20,G5A C6U U7A G8U C9A U17C,0.0376
21,G5A C6U U7A G8U C9A U27A G28A,0.065
22,G5A C6U U7A G8U C9A U27A G28C,0.126
23,G5A C6U U7A G8U C9A U27A G28U,0.0109
